# Measurements as given in the DeepSol protein solubility set.
# Assay: soluble on expression in E. coli; label from the status in PepcDB or PDB records
row,Sequence,soluble on expression in E. coli
1,ESEILGLFQRWQAAHGQRSGKALEGVYAPRLDYYGRAQTRERTLSAKQAFFARHPDFEQRIVAAPQIVPGDQEGRYEVRFVKQVRLDGRLRNYPGLLLAERAGPGDTWRFVGESDEITRYAVDPRYTPLARGRFAGTEADFAWVVAHAPNSAALCDEYEDCRCDLWSADARVPPK,not soluble
2,ETIASELKAIGKELEDQKKEENIQIAKIAKEKFDFLSTFKVGPYDLIDEDIQMKIKRTLYSSLDYKKENIEKLKEILEILKKNSEHYNIIGRLIYHISWGIQFQIEQNLELIQNGVENLSQEESKSLLMQIKSNLEIKQRLKKTLNETLKVYNQNTQDNEKILAEHFNKYYKDFDTLKPAF,soluble
3,ETQQRCVTATDYDTFVSERFGSIIQAVQTFTDSTKPGYAFIAAKPKSGLYLTTVQREDIKNYLKDYNLAPITPSIISPNYLFIKTNLKVTYALNKLQESEQWLEGQIIDKIDRYYTEDVEIFNSSFAKSKMLTYVDDADHSVIGSSATIQMVREVQNFYKTPEAGIKYNNQIKDRSMESNTFSFNSGRKVVNPDTGLEEDVLYDVRIVSTDRDSKGIGKVIIGPFASGDVTENENIQPYTGNDFNKLANSDGRDKYYVIGEINYPADVIYWNIAKINLTSEKFEVQTIELYSDPTDDVIFTRDGSLIVFENDLRPQYLTIDLEPISQLEHHHHHH,soluble
4,EVLRVQDKYFHIKCFVCKACGCDLAEGGFFVRQGEYICTLDYQRLYGTRCFSCDQFIEGEVVSALGKTYHPDCFVCAVCRLPFPPGDRVTFNGKECMCQKCSLPVSVGSSAHLSQGLRSCGGCGTEIKNGQALVALDKHWHLGCFKCKSCGKLLNAEYISKDGLPYCEADYHAKFGIRCDSCEKYITGRVLEAGEKHYHPSCALCVRCGQMFAEGEEMYLQGSSIWHPACRQAARTEDRNKETRTSSESIISVPASSTSGSPSRVIYAKLGGEILDYRDLAALPKSKAIYDIDRPDMISYSPYISHSAGDRQSYGEGDQDDRSYKQCRTSSPSSTGSVSLGRYTPTSRSPQHYSRPGSESGRSTPSLSVLSDSKPPPSTYQQAPRHFHVPDTGVKDNIYRKPPIYRQHAARRSDGEDGSLDQDNRKKSSWLMLKGDADTRTNSPDLDTQSLSHSSGTDRDPLQRMAGDSFHSQYKIYPYDSLIVTNRIRVKLPKDVDRTRLERHLSPEEFQEVFGMSIEEFDRLALWKRNDLKKKALLF,soluble
5,EVPTIDGRAKIRIEAGTQPGKMLRLRNKGLPSVNGYGMGDQLVNVNVYIPESIDAKDEQAIAAMENSDSFKPTDAARKDIDKKYREMLD,not soluble
6,FDKTVLQIFANYCVAAAESMAHTLMRTAHSAFVKETEDFSCTIMTPRGQTFASPKTLGATWYPGLDFSGAIDMIDGYEPGDICMTNDAYSGYVATHTPDIMMWKPVYYQGEMVCFVGGHIHNTDMGGAVPASLSRTLTEVHQEGIRFPPTKIVRRGVLNEELMRLMELNVRSPDQNRGDLQAQTAMLMTGERRIVEIIERFGLQAFKEGMAAMLDYSEQQARAIVRAMPDGEYFFAEYANEDSLNGKPLRVAITLRIRGDELEFDFTGSDPQLTSSLNMPTGGKERHVLALVGLNYVLYSLNPEILLNAGMLRVARCILPEGSVVNPLAPAAVGMRSLTCKVVQYATMGVFSQVVPDRLPASPAGGMSIVNVKTTDRDGKTIIAAIEPVGGGAGGDPYSDGADASGAIVAFLRNTPVEINETEVPIRITRYGMVPDSGGPGRYRGGLGTCMEFQVYTPNSAVTARNRDRSRFASWGVLGGKAGTVSRFLRNPGTAHEEDLGVHDFIHCQPGDVIRLEGCGGGGYGSPWERDPARVLHDVRCGYV,not soluble
7,FISSRANVDDLKSIENKSDFVATENMPNYVKGAFISMEDERFYKHHGFDIKGTTRALFSTISDRDVQGGSTITQQVVKNYYYDNERSFTRKIKELFVARKVEKQYSKNQILSFYMNNIYYGDNQYTVEGAANHYFGVTVDKNNSNMSQISVLQSAILASKVNAPSVYD,not soluble
8,FPPRIVNPVVTPVTDTLTDTTDTKEYAVQTAIPDQRKVARPRADALRNRERIVLAAREMFVEHGPDVPLDDVARRAGVGNATVYRNFPDRDALVREVVCSVMDRTARAAELALAETGDAFEALERFVHASADERISALCPMVASTFDQHHPDLEAARGRVERLVAEVMDRAKAAGQLRGDVGVGDLMIAAAQLSRPPAGTGCVNADRFVHRHLQLFLDGLRAPARSVLPGAAVTLEDLRRPCDQ,not soluble
9,FQRSTPAITLESPDIKYPLRLIDREIISHDTRRFRFALPSPQHILGLPVGQHIYLSARIDGNLVVRPYTPISSDDDKGFVDLVIKVYFKDTHPKFPAGGKMSQYLESMQIGDTIEFRGPSGLLVYQGKGKFAIRPDKKSNPIIRTVKSVGMIAGGTGITPMLQVIRAIMKDPDDHTVCHLLFANQTEKDILLRPELEELRNKHSARFKLWYTLDRAPEAWDYGQGFVNEEMIRDHLPPPEEEPLVLMCGPPPMIQYACLPNLDHVGHPTERCFVF,soluble
10,FVEAIHAAEERVWITSPYFIPDEAVTAALTLAVLRGVDVRLLLPSRPDHYVVYAASSLYAFDAVRAGVRVFRYEPGFLHQKVVLVDNDITAIGSANLDNRSFRLNFELMLLTVDSDFSSQVESMLTADFNLAREISVQ,not soluble
11,GAAEKTVVNISKVDGMPWFNRMGEGVVQAGKEFNLNASQVGPSSTDAPQQVKIIEDLIARKVDAITIVPNDANVLEPVFKKARDAGIVVLTNESPGQPSANWDVEIIDNEKFAAEYVEHMAKRMGGKGGYVIYVGSLTVPQHNLWADLLVKYQKEHYPDMHEVTRRMPVAESVDDSRRTTLDLMKTYPDLKAVVSFGSNGPIGAGRAVKEKRAKNKVAVYGMMIPSQAASLIKSGDITEGITYDPATAGYALAAVASTLLNGKTIEPGFELKELGKAEVDSDKHIIRFHKVLLVNKDNIDSLY,soluble
12,GAGTLIKDNLKRDLITSLPFEISLKIFNYLQFEDIINSLGVSQNWNKIIRKSTSLWKKLLISENFVSPKGFNSLNLKLSQKYPKLSQQDRLRLSFLENIFILKNWYNPKFVPQRTTLRGHMTSVITCLQFEDNYVITGADDKMIRVYDSINKKFLLQLSGHDGGVWALKYAHGGILVSGSTDRTVRVWDIKKGCCTHVFEGHNSTVRCLDIVEYKNIKYIVTGSRDNTLHVWKLPKESSVPDHGEEHDYPLVFHTPEENPYFVGVLRGHMASVRTVSGHGNIVVSGSYDNTLIVWDVAQMKCLYILSGHTDRIYSTIYDHERKRCISASMDTTIRIWDLENGELMYTLQGHTALVGLLRLSDKFLVSAAADGSIRGWDANDYSRKFSYHHTNLSAITTFYVSDNILVSGSENQFNIYNLRSGKLVHANILKDADQIWSVNFKGKTLVAAVEKDGQSFLEILDFS,soluble
13,GAKPNQKVIAEILKYPSPGKNPEAKVVKVLGDLDDPSIDLPSVIVKHDLPEPGEFPEEVIREANAIPARVRKKDLVGRKDLRDKVIVTIDGEDAKDFDDAISVEKLPNGNYLLGVHIADVSHYVKEGSALDQEAFKRGTSVYLIDTVIPMLPFRLSNGICSLVEGKDRLTMSVEMEIDRDGRVVRYDVYPSVIKSKKRMIYERVNEFLEDPSSMKEYEPFKDLIYNAVELAEILREARRKRGAILDIESDEVKVILDENGQVVDIVPRKRGIAEKLIEEFMIRANETVAEIFDHAGLPFMYRVHEEPDPETIFQLKNYLEAMGIRAKFSHKIHPGMLQKLLEKVKDHPLRSSVERLLVRSMKRAMY,soluble
14,GALRSLVLIGHGSHHHGESARATQQVAEALRGRGLAGHLPYDEVLEGYWQQEPGLRQVLRTVAYSDVTVVPVFLSEGYVTETVLPRELGLGHQGPVPTGGVVRVLGGRRVRYTRPLGAHPGMADAIAAQARDTLPEGTDPADVTLLLLAARPGNAALETHAQALRERGQFAGVEVVLESREALTPESHAASAVPLSEWPSRVEAGQAVLVPFLTHLGKHAAERLQQALAQAAERFPQAPPLHVGGPVGEHPAVAEVVLALAAEGREDERGGDIDQAHAEAWAALRHLAERGGRLGEVLLTPYGGLFELRHTLDEGRATLDLQTVVTPEGLRDLTARDEAGRWRPIRTWRTLPRGWRAVLSPADLRLGLELLYPAVIEESYAHEHRRLHWTPWMSTARRQTGTLARVQRATPDQVDTVAAQVCASCLRTRLWAGHTLGQTIFSGVPGGLPCAEACTVLLAAVRDEVGREAMGSGD,soluble
15,GALVPRGSHMADPSLNNPVVIQATRLDASILPRNVFSKSYLLYVIAQGTDVGAIAGKANEAGQGAYDAQVKNDEQDVELADHEARIKQLRIDVDDHESRITANTKAITALNVRVTTAEGEIASLQTNVSALDGRVTTAENNISALQADYVSKTATTSQSLASPLNVTTSYSVGGKKVVGARQTGWTAATGTANKGVFDADLTFAVSDTYTQSEIQAIANALITERRRTKAMEDALRAHGLID,soluble
16,GAMDIVVNDDLSCRFLEGFNTRDALCKKISMNTCDEGDPFFVADLGDIVRKHETWKKCLPRVTPFYAVKCNDDWRVLGTLAALGTGFDCASNTEIQRVRGIGVPPEKIIYANPCKQISHIRYARDSGVDVMTFDCVDELEKVAKTHPKAKMVLRISTDDSLARCRLSVKFGAKVEDCRFILEQAKKLNIDVTGVSFHVGSGSTDASTFAQAISDSRFVFDMGTELGFNMHILDIGGGFPGTRDAPLKFEEIAGVINNALEKHFPPDLKLTIVAEPGRYYVASAFTLAVNVIAKKVTPGVQTDVGAHAESNAQSFMYYVNDGVYGSFNCILYDHAVVRPLPQREPIPNEKLYPSSVWGPTCDGLDQIVERYYLPEMQVGEWLLFEDMGAYTVVGTSSFNGFQSPTIYYVVSGLPDHVVRELKSQKS,soluble
17,GAMEATEIISTLSNGLIASHYGVSFFTIQSFVSSLSNTSTLKNMLYVLSTAVEFESVPLRKGDRALLVKLSKRLPLRFPEHTSSGSVSFKVFLLLQAYFSRLELPVDFQNDLKDILEKVVPLINVVVDILSANGYLNATTAMDLAQMLIQGVWDVDNPLRQIPHFNNKILEKCKEINVETVYDIMALEDEERDEILTLTDSQLAQVAAFVNNYPNVELTYSLNNSDSLISGVKQKITIQLTRDVEPENLQVTSEKYPFDKLESWWLVLGEVSKKELYAIKKVTLNKETQQYELEFDTPTSGKHNLTIWCVCDSYLDADKELSFEINVK,soluble
18,GDKVIVMGHKRPDLDAIGAAIGVSRFASMNNLEAFIVLNDSDIDPTLRRVMDEIDKKPELKERFVTSDEAWDMMTSKTTVVVVDTHKPEMVLDENVLNKANRKVVIDHHRRGESFISNPLLVYMEPYASSTAELVTELLEYQPTEQRLTRLESTVMYAGIIVDTRNFTLRTGSRTFDAASYLRAHGADTILTQHFLKDDV,not soluble
19,GEETRTEVEKKNYMNNAEEAKDVLLGVYRTNTLDAMYGYYLSILFNLGTDISQVEGSGNENFRIIPTNSFPTTQSEVQQTWAALYTGIYRANDFLERISNKIGSYTTTDKKLATLYIAEARALRGMFYFELVRRFGNVVLMTSTQMSNQNPATYVQSAPEKVYEYIEDDLLYACDILPYATDDQYRESNDYRFSKGAALGLLTKVYATWAGYPVKDESKWEAAAKTARILVESGKHGLLKDYEQLWKNTCNGTWDPTESLIEISFYSPTVSGNSDPVGRIGKWNGVKTTAIAGVRGSCAANVKVVHTFVLDWREDVSDIRRDLSIANYQYTDTKKSLWVAGASDTDESAAEKDADPTKAQKNKQNYTPAKWDIQKYVTTNSFINNDKSNVNWYFLRYADVLLLYAEALNEWKHGPDAEAYNAINAVRRRGYGNPSNTSACDLPQGLDETSFREAVRKERSYELSFEGHRRQDLIRWGIYYKTVQATAKELGYWWEGTGSPNYSVATYTEEGKHELFPIPQRDMDLCIQFNQNPKW,soluble
20,GEFGDEDLEELCPVCGDKVSGYHYGLLTCESCKGFFKRTVQNNKRYTCIENQNCQIDKTQRKRCPYCRFQKCLSVGMKLEAVRADRMRGGRNKFGPMYKRDRALKQQKKALIR,soluble
21,GFASHQYVNHVEKQRPIVTLAKHPKKVLFFYRDDCPDCQAIFHRIYWHNVISHNVVFINMNQTQNRHYIQQYQLTSVPTLIHGKQRYTGTNQQRIKQIVGD,not soluble
